Laboratory results from paper PMC1762320, “Separation of Anti-Proliferation and Anti-Apoptotic Functions of Retinoblastoma Protein through Targeted Mutations of Its A/B Domain” (PLoS ONE, 2006).

Target: E2F1 induced in SAOS-2-tet-E2F1 cells (human, UniProt Q01094 1-437)
Experiment: cell-based or functional assay

Chain of E2F1 induced in SAOS-2-tet-E2F1 cells (Q01094 whole entry): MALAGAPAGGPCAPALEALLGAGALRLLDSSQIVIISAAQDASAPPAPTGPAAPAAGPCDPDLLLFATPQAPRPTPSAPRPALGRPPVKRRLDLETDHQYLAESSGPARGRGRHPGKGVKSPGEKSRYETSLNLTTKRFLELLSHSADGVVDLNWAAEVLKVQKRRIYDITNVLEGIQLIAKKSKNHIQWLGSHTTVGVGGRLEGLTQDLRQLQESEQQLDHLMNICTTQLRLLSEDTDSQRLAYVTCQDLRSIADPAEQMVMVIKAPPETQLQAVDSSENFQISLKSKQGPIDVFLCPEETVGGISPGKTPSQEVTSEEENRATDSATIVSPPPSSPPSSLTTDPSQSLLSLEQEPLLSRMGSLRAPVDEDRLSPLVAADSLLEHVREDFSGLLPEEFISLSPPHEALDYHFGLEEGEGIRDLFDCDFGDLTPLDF

Gal4-Luc luciferase reporter in SAOS-2 cells co-transfected with Gal4-E2F1 (Gal4 DNA-binding domain and transactivation domain of E2F1) and RB: reduction of Gal4-E2F1 activity: 3 fold
B1: retinoblastoma protein RB (wild type, expressed in cells) (natural protein, human, UniProt P06400 1-928, looked up)
chain: MPPKTPRKTAATAAAAAAEPPAPPPPPPPEEDPEQDSGPEDLPLVRLEFEETEEPDFTALCQKLKIPDHVRERAWLTWEKVSSVDGVLGGYIQKKKELWGICIFIAAVDLDEMSFTFTELQKNIEISVHKFFNLLKEIDTSTKVDNAMSRLLKKYDVLFALFSKLERTCELIYLTQPSSSISTEINSALVLKVSWITFLLAKGEVLQMEDDLVISFQLMLCVLDYFIKLSPPMLLKEPYKTAVIPINGSPRTPRRGQNRSARIAKQLENDTRIIEVLCKEHECNIDEVKNVYFKNFIPFMNSLGLVTSNGLPEVENLSKRYEEIYLKNKDLDARLFLDHDKTLQTDSIDSFETQRTPRKSNLDEEVNVIPPHTPVRTVMNTIQQLMMILNSASDQPSENLISYFNNCTVNPKESILKRVKDIGYIFKEKFAKAVGQGCVEIGSQRYKLGVRLYYRVMESMLKSEEERLSIQNFSKLLNDNIFHMSLLACALEVVMATYSRSTSQNLDSGTDLSFPWILNVLNLKAFDFYKVIESFIKAEGNLTREMIKHLERCEHRIMESLAWLSDSPLFDLIKQSKDREGPTDHLESACPLNLPLQNNHTAADMYLSPVRSPKKKGSTTRVNSTANAETQATSAFQTQKPLKSTSLSLFYKKVYRLAYLRLNTLCERLLSEHPELEHIIWTLFQHTLQNEYELMRDRHLDQIMMCSMYGICKVKNIDLKFKIIVTAYKDLPHAVQETFKRVLIKEEEYDSIIVFYNSVFMQRLKTNILQYASTRPPTLSPIPHIPRSPYKFPSSPLRIPGGNIYISPLKSPYKISEGLPTPTKMTPRSRILVSIGESFGTSEKFQKINQMVCNSDRVLKRSAEGSNPPKPLKKLRFDIEGSDEADGSKHLPGESKFQQKLAEMTSTRTRMQKQKMNDSMDTSNKEEK
